Source: the supplement of paper PMC5998384

Columns and labels:
[1] = tested on: HeLa Kyoto; assay: melting temperature (median over replicates), in situ; higher = more thermally stable
[2] = tested on: HeLa Kyoto; assay: solubility in G1/S (NP-40 vs SDS abundance) (log2 ratio); higher = more soluble; conditions: cell cycle stage: G1/S
[3] = tested on: HeLa Kyoto; assay: thermal stability score vs G1/S (z-score of summed log2 fold changes over temperatures); higher = more thermally stable than in G1/S
[4] = tested on: HeLa Kyoto; assay: solubility change mitosis vs G1/S (difference of NP-40 vs SDS log2 ratios) (log2 ratio difference); higher = more soluble in mitosis
[5] = cell cycle stage: early G1 (4.5 h after nocodazole release)
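For melting temperature (median over replicates), in situ in this document: HeLa Kyoto cells synchronized by double thymidine or nocodazole block, proteins quantified by TMT10plex mass spectrometry, three independent biological replicates.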
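For solubility change mitosis vs G1/S (difference of NP-40 vs SDS log2 ratios) in this document: synchronized HeLa Kyoto cells (double thymidine block for G1/S, nocodazole release for mitosis), protein amounts in NP-40 versus SDS lysates quantified by mass spectrometry, three biological replicates.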
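For solubility in G1/S (NP-40 vs SDS abundance) in this document: HeLa Kyoto cells arrested at G1/S by double thymidine block, proteins quantified by TMT10plex mass spectrometry in mild NP-40 versus SDS extracts, three biological replicates.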
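For thermal stability score vs G1/S (z-score of summed log2 fold changes over temperatures) in this document: synchronized HeLa Kyoto cells, proteins quantified by TMT10plex mass spectrometry, three biological replicates, mitosis taken 0.5 h after nocodazole release, G1/S directly after double thymidine block.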

Substance	melting temperature ([1]; cell cycle stage: G1/S)	melting temperature ([1]; cell cycle stage: mitosis)	solubility in G1/S (log2) [2]	thermal stability score [3, 5]	thermal stability score ([3]; cell cycle stage: mitosis)	solubility change mitosis (log2) [4]
MAALGVAEAVAAPHPAEGAETAEAVELSRALSRLLPGLEADSKPGRRRALEALRRALEEPGPAADPTAFQGPWARLLLPRLLRCLSDPAEGCRALAVHLLDLGLRRAARPRDALPRLLPALAARLAGPVPARRPPEACEELRLALVQLLGLAVDLCGAALAPHLDDALRALRCSLLDPFAAVRRESCSCAAALAQATPDHFHMQSESLIGPLMQTISHQHWKVRVAAIEATGAVIHFGNGKSVDDVLSHFAQRLFDDVPQVRRAVASVVGGWLLCLRDRYSFFHKLIPLLLSSLNDEVPEVRQLAASLWEDVGLQWQKENEEDLKDKLDFAPPTPPHYPPHERRPVLGCRELVFRNLSKILPALCHDITDWVVGTRVKSAQLLPVLLLHAEDHATQHLEVVLRTLFQACTDEEAAVVQSCTRSAELVGTFVSPEVFLKLILSTLKKTPSASGLLVLASAMRGCPREALQPHLAAIATELAQAHICQASENDLYLERLLLCVQALVSVCHEDCGVASLQLLDVLLTIVALAGATGLRDKAQETMDSLAMVEGVSSCQDLYRKHIGPLLERVTASHLDWTAHSPELLQFSVIVAQSGPALGEALPHVVPTLRACLQPSQDPQMRLKLFSILSTVLLRATDTINSQGQFPSYLETVTKDILAPNLQWHAGRTAAAIRTAAVSCLWALTSSEVLSAEQIRDVQETLMPQVLTTLEEDSKMTRLISCRIINTFLKTSGGMTDPEKLIRIYPELLKRLDDVSNDVRMAAASTLVTWLQCVKGANAKSYYQSSVQYLYRELLVHLDDPERAIQDAILEVLKEGSGLFPDLLVRETEAVIHKHRSATYCEQLLQHVQAVPATQ [DNAAF5]	48.1 °C	48 °C	0.0447	0.695	2.82	-0.172
MLPVYQEVKPNPLQDANLCSRVFFWWLNPLFKIGHKRRLEEDDMYSVLPEDRSQHLGEELQGFWDKEVLRAENDAQKPSLTRAIIKCYWKSYLVLGIFTLIEESAKVIQPIFLGKIINYFENYDPMDSVALNTAYAYATVLTFCTLILAILHHLYFYHVQCAGMRLRVAMCHMIYRKALRLSNMAMGKTTTGQIVNLLSNDVNKFDQVTVFLHFLWAGPLQAIAVTALLWMEIGISCLAGMAVLIILLPLQSCFGKLFSSLRSKTATFTDARIRTMNEVITGIRIIKMYAWEKSFSNLITNLRKKEISKILRSSCLRGMNLASFFSASKIIVFVTFTTYVLLGSVITASRVFVAVTLYGAVRLTVTLFFPSAIERVSEAIVSIRRIQTFLLLDEISQRNRQLPSDGKKMVHVQDFTAFWDKASETPTLQGLSFTVRPGELLAVVGPVGAGKSSLLSAVLGELAPSHGLVSVHGRIAYVSQQPWVFSGTLRSNILFGKKYEKERYEKVIKACALKKDLQLLEDGDLTVIGDRGTTLSGGQKARVNLARAVYQDADIYLLDDPLSAVDAEVSRHLFELCICQILHEKITILVTHQLQYLKAASQILILKDGKMVQKGTYTEFLKSGIDFGSLLKKDNEESEQPPVPGTPTLRNRTFSESSVWSQQSSRPSLKDGALESQDTENVPVTLSEENRSEGKVGFQAYKNYFRAGAHWIVFIFLILLNTAAQVAYVLQDWWLSYWANKQSMLNVTVNGGGNVTEKLDLNWYLGIYSGLTVATVLFGIARSLLVFYVLVNSSQTLHNKMFESILKAPVLFFDRNPIGRILNRFSKDIGHLDDLLPLTFLDFIQTLLQVVGVVSVAVAVIPWIAIPLVPLGIIFIFLRRYFLETSRDVKRLESTTRSPVFSHLSSSLQGLWTIRAYKAEERCQELFDAHQDLHSEAWFLFLTTSRWFAVRLDAICAMFVIIVAFGSLILAKTLDAGQVGLALSYALTLMGMFQWCVRQSAEVENMMISVERVIEYTDLEKEAPWEYQKRPPPAWPHEGVIIFDNVNFMYSPGGPLVLKHLTALIKSQEKVGIVGRTGAGKSSLISALFRLSEPEGKIWIDKILTTEIGLHDLRKKMSIIPQEPVLFTGTMRKNLDPFNEHTDEELWNALQEVQLKETIEDLPGKMDTELAESGSNFSVGQRQLVCLARAILRKNQILIIDEATANVDPRTDELIQKKIREKFAHCTVLTIAHRLNTIIDSDKIMVLDSGRLKEYDEPYVLLQNKESLFYKMVQQLGKAEAAALTETAKQVYFKRNYPHIGHTDHMVTNTSNGQPSTLTIFETAL [ABCC4]	57.5 °C	55.8 °C	-0.0872	-1.17	-1.43	-0.177
MLKKFDKKDEESGGGSNPFQHLEKSAVLQEARVFNETPINPRKCAHILTKILYLINQGEHLGTTEATEAFFAMTKLFQSNDPTLRRMCYLTIKEMSCIAEDVIIVTSSLTKDMTGKEDNYRGPAVRALCQITDSTMLQAIERYMKQAIVDKVPSVSSSALVSSLHLLKCSFDVVKRWVNEAQEAASSDNIMVQYHALGLLYHVRKNDRLAVNKMISKVTRHGLKSPFAYCMMIRVASKQLEEEDGSRDSPLFDFIESCLRNKHEMVVYEAASAIVNLPGCSAKELAPAVSVLQLFCSSPKAALRYAAVRTLNKVAMKHPSAVTACNLDLENLVTDSNRSIATLAITTLLKTGSESSIDRLMKQISSFMSEISDEFKVVVVQAISALCQKYPRKHAVLMNFLFTMLREEGGFEYKRAIVDCIISIIEENSESKETGLSHLCEFIEDCEFTVLATRILHLLGQEGPKTTNPSKYIRFIYNRVVLEHEEVRAGAVSALAKFGAQNEEMLPSILVLLKRCVMDDDNEVRDRATFYLNVLEQKQKALNAGYILNGLTVSIPGLERALQQYTLEPSEKPFDLKSVPLATAPMAEQRTESTPITAVKQPEKVAATRQEIFQEQLAAVPEFRGLGPLFKSSPEPVALTESETEYVIRCTKHTFTNHMVFQFDCTNTLNDQTLENVTVQMEPTEAYEVLCYVPARSLPYNQPGTCYTLVALPKEDPTAVACTFSCMMKFTVKDCDPTTGETDDEGYEDEYVLEDLEVTVADHIQKVMKLNFEAAWDEVGDEFEKEETFTLSTIKTLEEAVGNIVKFLGMHPCERSDKVPDNKNTHTLLLAGVFRGGHDILVRSRLLLLDTVTMQVTARSLEELPVDIILASVG [COPG1]	52 °C	51.5 °C	-0.169	0.468	-0.737	-0.224
MFKNTFQSGFLSILYSIGSKPLQIWDKKVRNGHIKRITDNDIQSLVLEIEGTNVSTTYITCPADPKKTLGIKLPFLVMIIKNLKKYFTFEVQVLDDKNVRRRFRASNYQSTTRVKPFICTMPMRLDDGWNQIQFNLLDFTRRAYGTNYIETLRVQIHANCRIRRVYFSDRLYSEDELPAEFKLYLPVQNKAKQ [CFAP20]	50.9 °C	51 °C	-0.154	-0.133	0.199	-0.00426
MEQPKGVDWTVIILTCQYKDSVQVFQRELEVRQKREQIPAGTLLLAVEDPEKRVGSGGATLNALLVAAEHLSARAGFTVVTSDVLHSAWILILHMGRDFPFDDCGRAFTCLPVENPEAPVEALVCNLDCLLDIMTYRLGPGSPPGVWVCSTDMLLSVPANPGISWDSFRGARVIALPGSPAYAQNHGVYLTDPQGLVLDIYYQGTEAEIQRCVRPDGRVPLVSGVVFFSVETAERLLATHVSPPLDACTYLGLDSGARPVQLSLFFDILHCMAENVTREDFLVGRPPELGQGDADVAGYLQSARAQLWRELRDQPLTMAYVSSGSYSYMTSSASEFLLSLTLPGAPGAQIVHSQVEEQQLLAAGSSVVSCLLEGPVQLGPGSVLQHCHLQGPIHIGAGCLVTGLDTAHSKALHGRELRDLVLQGHHTRLHGSPGHAFTLVGRLDSWERQGAGTYLNVPWSEFFKRTGVRAWDLWDPETLPAEYCLPSARLFPVLHPSRELGPQDLLWMLDHQEDGGEALRAWRASWRLSWEQLQPCLDRAATLASRRDLFFRQALHKARHVLEARQDLSLRPLIWAAVREGCPGPLLATLDQVAAGAGDPGVAARALACVADVLGCMAEGRGGLRSGPAANPEWMRPFSYLECGDLAAGVEALAQERDKWLSRPALLVRAARHYEGAGQILIRQAVMSAQHFVSTEQVELPGPGQWVVAECPARVDFSGGWSDTPPLAYELGGAVLGLAVRVDGRRPIGARARRIPEPELWLAVGPRQDEMTVKIVCRCLADLRDYCQPHAPGALLKAAFICAGIVHVHSELQLSEQLLRTFGGGFELHTWSELPHGSGLGTSSILAGTALAALQRAAGRVVGTEALIHAVLHLEQVLTTGGGWQDQVGGLMPGIKVGRSRAQLPLKVEVEEVTVPEGFVQKLNDHLLLVYTGKTRLARNLLQDVLRSWYARLPAVVQNAHSLVRQTEECAEGFRQGSLPLLGQCLTSYWEQKKLMAPGCEPLTVRRMMDVLAPHVHGQSLAGAGGGGFLYLLTKEPQQKEALEAVLAKTEGLGNYSIHLVEVDTQGLSLKLLGTEASTCCPFP [FUK]	56.6 °C	54.8 °C	-0.0525	-0.477	-1.02	-0.182
MAKKTYDLLFKLLLIGDSGVGKTCVLFRFSDDAFNTTFISTIGIDFKIKTVELQGKKIKLQIWDTAGQERFHTITTSYYRGAMGIMLVYDITNGKSFENISKWLRNIDEHANEDVERMLLGNKCDMDDKRVVPKGKGEQIAREHGIRFFETSAKANINIEKAFLTLAEDILRKTPVKEPNSENVDISSGGGVTGWKSKCC [RAB10]	57.5 °C	56.5 °C	-0.153	-0.265	-1.23	-0.146
MSASAVYVLDLKGKVLICRNYRGDVDMSEVEHFMPILMEKEEEGMLSPILAHGGVRFMWIKHNNLYLVATSKKNACVSLVFSFLYKVVQVFSEYFKELEEESIRDNFVIIYELLDELMDFGYPQTTDSKILQEYITQEGHKLETGAPRPPATVTNAVSWRSEGIKYRKNEVFLDVIESVNLLVSANGNVLRSEIVGSIKMRVFLSGMPELRLGLNDKVLFDNTGRGKSKSVELEDVKFHQCVRLSRFENDRTISFIPPDGEFELMSYRLNTHVKPLIWIESVIEKHSHSRIEYMIKAKSQFKRRSTANNVEIHIPVPNDADSPKFKTTVGSVKWVPENSEIVWSIKSFPGGKEYLMRAHFGLPSVEAEDKEGKPPISVKFEIPYFTTSGIQVRYLKIIEKSGYQALPWVRYITQNGDYQLRTQ [AP1M1]	50.8 °C	50.6 °C	-0.0655	-0.363	-0.744	-0.209
CLASP1	48.8 °C	49.2 °C	-0.0269	-0.916	0.139	-0.0633
METGTAPLVAPPRRHGAPAAPSPPPRGSRAGPVVVVAPGPPVTTATSAPVTLVAPGEARPAWVPGSAETSAPAPAPAPAPAPAVTGSTVVVLTLEASPEAPKPQLPSGPESPEPAAVAGVETSRALAAGADSPKTEEARPSPAPGPGTPTGTPTRTPSRTAPGALTAKPPLAPKPGTTVASGVTARSASGQVTGGHGAAAATSASAGQAPEDPSGPGTGPSGTCEAPVAVVTVTPAPEPAENSQDLGSTSSLGPGISGPRGQAPDTLSYLDSVSLMSGTLESLADDVSSMGSDSEINGLALRKTDKYGFLGGSQYSGSLESSIPVDVARQRELKWLDMFSNWDKWLSRRFQKVKLRCRKGIPSSLRAKAWQYLSNSKELLEQNPGKFEELERAPGDPKWLDVIEKDLHRQFPFHEMFAARGGHGQQDLYRILKAYTIYRPDEGYCQAQAPVAAVLLMHMPAEQAFWCLVQICDKYLPGYYSAGLEAIQLDGEIFFALLRRASPLAHRHLRRQRIDPVLYMTEWFMCIFARTLPWASVLRVWDMFFCEGVKIIFRVALVLLRHTLGSVEKLRSCQGMYETMEQLRNLPQQCMQEDFLVHEVTNLPVTEALIERENAAQLKKWRETRGELQYRPSRRLHGSRAIHEERRRQQPPLGPSSSLLSLPGLKSRGSRAAGGAPSPPPPVRRASAGPAPGPVVTAEGLHPSLPSPTGNSTPLGSSKETRKQEKERQKQEKERQKQEKEREKERQKQEKEREKQEKEREKQEKERQKQEKKAQGRKLSLRRKADGPPGPHDGGDRPSAEARQDAYF [TBC1D10B]	51.2 °C	52.2 °C	0.0909	0.22	0.904	-0.137
